Numbering of substitutions follows the chain as printed.
T1: cynomolgus CEACAM5 on cells (HCT116-cyCEACAM5) (cynomolgus (Macaca fascicularis))
T1 construct: also called cynoCEACAM-5
T1 chain: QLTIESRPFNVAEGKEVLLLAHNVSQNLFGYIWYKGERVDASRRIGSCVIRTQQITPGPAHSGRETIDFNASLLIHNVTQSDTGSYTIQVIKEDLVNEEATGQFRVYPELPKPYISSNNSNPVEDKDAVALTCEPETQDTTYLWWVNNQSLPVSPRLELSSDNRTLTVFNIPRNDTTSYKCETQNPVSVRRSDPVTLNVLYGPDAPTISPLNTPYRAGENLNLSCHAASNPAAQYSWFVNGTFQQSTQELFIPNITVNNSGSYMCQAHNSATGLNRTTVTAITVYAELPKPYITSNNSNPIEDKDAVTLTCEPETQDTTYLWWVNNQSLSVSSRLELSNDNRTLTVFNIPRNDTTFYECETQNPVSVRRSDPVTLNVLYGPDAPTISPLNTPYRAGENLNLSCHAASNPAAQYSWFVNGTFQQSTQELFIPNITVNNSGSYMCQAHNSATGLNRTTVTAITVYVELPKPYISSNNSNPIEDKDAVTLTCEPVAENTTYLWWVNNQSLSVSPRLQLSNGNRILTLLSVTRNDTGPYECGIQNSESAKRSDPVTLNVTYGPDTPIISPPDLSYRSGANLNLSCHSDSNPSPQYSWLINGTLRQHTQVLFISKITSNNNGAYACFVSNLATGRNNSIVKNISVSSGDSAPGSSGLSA

T2: human CEACAM5 on cells (MKN45, BxPC-3, Ls174T, HCT116-huCEACAM5) (human, UniProt P06731 35-685)
T2 sequence: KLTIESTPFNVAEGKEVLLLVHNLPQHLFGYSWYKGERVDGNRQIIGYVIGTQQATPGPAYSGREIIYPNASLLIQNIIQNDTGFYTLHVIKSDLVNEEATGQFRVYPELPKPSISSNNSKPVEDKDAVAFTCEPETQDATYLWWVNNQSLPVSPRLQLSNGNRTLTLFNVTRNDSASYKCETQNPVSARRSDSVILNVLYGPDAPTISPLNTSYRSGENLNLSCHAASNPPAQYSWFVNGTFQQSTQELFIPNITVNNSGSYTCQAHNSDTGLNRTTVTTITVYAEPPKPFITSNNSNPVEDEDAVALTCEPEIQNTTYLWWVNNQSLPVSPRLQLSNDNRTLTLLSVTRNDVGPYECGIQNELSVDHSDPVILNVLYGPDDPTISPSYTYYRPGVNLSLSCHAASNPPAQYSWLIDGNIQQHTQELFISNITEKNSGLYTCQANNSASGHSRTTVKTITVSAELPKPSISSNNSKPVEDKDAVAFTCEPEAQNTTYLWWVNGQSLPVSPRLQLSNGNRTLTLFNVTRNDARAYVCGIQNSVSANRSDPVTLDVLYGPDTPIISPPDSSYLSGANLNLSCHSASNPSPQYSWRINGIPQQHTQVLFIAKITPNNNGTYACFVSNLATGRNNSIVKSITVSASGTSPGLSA

B1: anti-CEACAM5 mAb MBN001 (antibody, V domains shown)
VH: QVQLVETGGGVVQPGRSLRLSCAASGITFSSHGMHWVRQSPGKGLEWVTFISYDGSYKSYVDSVKGRFAISRDNSKNTLYLQMNSLRPEDTAVYYCATGLTGTGAFDIWGQGTMVTVSS
VL: not shown
notes: also called MBN001 parent; bin 1 lead
B2: MBP003 (hIgG1 progeny of MBN001) (antibody, V domains shown)
VH: B1 VH with T7S, S40A, A69T, P88A
VL: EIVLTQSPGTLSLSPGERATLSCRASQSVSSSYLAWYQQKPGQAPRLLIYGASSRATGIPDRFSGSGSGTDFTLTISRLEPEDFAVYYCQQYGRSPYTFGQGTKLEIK
B3: MBP011 (hIgG1.3f progeny of MBN001) (antibody, V domains shown)
VH: B1 VH with T7S, S40A, Y57I, A69T, P88A
VL: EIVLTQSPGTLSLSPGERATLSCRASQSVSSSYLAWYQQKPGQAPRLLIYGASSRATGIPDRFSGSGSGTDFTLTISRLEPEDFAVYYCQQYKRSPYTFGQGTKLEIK
B4: MBP009 (hIgG1.3f progeny of MBN001) (antibody, V domains shown)
VH: B1 VH with T7S, T28Y, S40A, A69T, P88A
VL: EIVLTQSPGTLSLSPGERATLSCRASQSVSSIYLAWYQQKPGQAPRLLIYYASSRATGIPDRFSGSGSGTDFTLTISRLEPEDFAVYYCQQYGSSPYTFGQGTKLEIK
B5: MBP007 (hIgG1.3f progeny of MBN001) (antibody, V domains shown)
VH: B1 VH with T7S, T28Y, S40A, A69T, P88A, F106N
VL: EIVLTQSPGTLSLSPGERATLSCRASQSVSSSYLAWYQQKPGQAPRLLIYGASSRATGIPDRFSGSGSGTDFTLTISRLEPEDFAVYYCQQNKPSPYTFGQGTKLEIK
B6: MBP008 (hIgG1.3f progeny of MBN001) (antibody, V domains shown)
VH: B1 VH with T7S, S40A, A69T, P88A, G104N, F106L
VL: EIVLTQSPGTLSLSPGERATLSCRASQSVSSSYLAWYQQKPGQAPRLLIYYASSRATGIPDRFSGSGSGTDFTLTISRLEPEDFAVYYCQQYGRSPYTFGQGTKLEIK
B7: MBP010 (hIgG1.3f progeny of MBN001) (antibody, V domains shown)
VH: B1 VH with T7S, S40A, G55S, A69T, P88A
VL: B5 VL with P94R
B8: MBP004 (hIgG1.3f progeny of MBN001) (antibody, V domains shown)
VH: B1 VH with T7S, S40A, A69T, P88A
VL: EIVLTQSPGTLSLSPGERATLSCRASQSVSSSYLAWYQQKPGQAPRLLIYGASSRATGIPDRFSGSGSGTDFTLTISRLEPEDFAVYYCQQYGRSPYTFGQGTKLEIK
B9: MBP002 (hIgG1 progeny of MBN001) (antibody, V domains shown)
VH: B1 VH with T7S, S40A, A69T, P88A, G104N, F106L
VL: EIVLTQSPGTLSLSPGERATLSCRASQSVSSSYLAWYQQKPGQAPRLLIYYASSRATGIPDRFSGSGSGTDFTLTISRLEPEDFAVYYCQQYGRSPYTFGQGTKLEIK
B10: MBP006 (hIgG1.3f progeny of MBN001) (antibody, V domains shown)
VH: B1 VH with T7S, S40A, K58I, A69T, P88A, F106N
VL: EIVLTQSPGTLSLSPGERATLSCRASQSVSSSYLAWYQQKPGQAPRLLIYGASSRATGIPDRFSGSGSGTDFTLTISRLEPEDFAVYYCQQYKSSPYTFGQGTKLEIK
B11: MBP005 (hIgG1.3f progeny of MBN001) (antibody, V domains shown)
VH: B1 VH with T7S, T28Y, S40A, A69T, P88A
VL: not shown

Molecular target: T1, cynomolgus CEACAM5 on cells …
Experiment: cell binding, HCT-116 cyCEACAM5 cells

Binder	EC50 [nM]
B1	82.2

Each binder was assayed against T2, human CEACAM5 on cells (MKN45, BxPC-3, …) (assay: cell-based or functional assay).

Binder	Ls174T 5-day cytotoxicity (AUC), antibody with cytotoxic payload	MKN45 5-day cytotoxicity (AUC), antibody with cytotoxic payload
B2	18500	24400
B3	939	1770
B4	1040	2200
B5	834	2070
B6	1140	2200
B7	910	1360
B8	865	2380
B9	18900	24100
B10	902	2440
B11	964	2350

From patent US20250361320A1 (Bristol-Myers Squibb, published 2025)
